# Test results as given in the supplement of paper PMC11246515.
# ± gives the standard deviation of the averaged measurements.
# Assay: total protein half-life in vivo (active degradation + dilution); higher = more stable protein
# [1] = wild type E. coli NCM3722, growth: C-lim chemostat, doubling time 3 h
# [2] = wild type E. coli NCM3722, growth: C-lim chemostat, doubling time 6 h
# [3] = wild type E. coli NCM3722, growth: C-lim chemostat, doubling time 12 h
# [4] = E. coli NCM3722 delta-clpP delta-lon delta-hslV, growth: N-lim chemostat, doubling time 6 h
# [5] = E. coli NCM3722 delta-clpP, growth: N-lim chemostat, doubling time 6 h
# [6] = E. coli NCM3722 delta-hslV, growth: N-lim chemostat, doubling time 6 h
# [7] = E. coli NCM3722 delta-lon, growth: N-lim chemostat, doubling time 6 h
# [8] = E. coli NCM3722 delta-smpB, growth: N-lim chemostat, doubling time 6 h
# [9] = wild type E. coli NCM3722, growth: N-lim chemostat, doubling time 6 h
# [10] = wild type E. coli NCM3722, growth: N-lim chemostat, doubling time 12 h
# [11] = wild type E. coli NCM3722, growth: P-lim chemostat, doubling time 6 h
# [12] = wild type E. coli NCM3722, growth: P-lim chemostat, doubling time 12 h
Sequence,total protein half-life in vivo [1],total protein half-life in vivo [2],total protein half-life in vivo [3],total protein half-life in vivo [4],total protein half-life in vivo [5],total protein half-life in vivo [6],total protein half-life in vivo [7],total protein half-life in vivo [8],total protein half-life in vivo [9],total protein half-life in vivo [10],total protein half-life in vivo [11],total protein half-life in vivo [12]
MSSVSTSGSGAPKSSFSFGRIWDQYGMLVVFAVLFIACAIFVPNFATFINMKGLGLAISMSGMVACGMLFCLASGDFDLSVASVIACAGVTTAVVINLTESLWIGVAAGLLLGVLCGLVNGFVIAKLKINALITTLATMQIVRGLAYIISDGKAVGIEDESFFALGYANWFGLPAPIWLTVACLIIFGLLLNKTTFGRNTLAIGGNEEAARLAGVPVVRTKIIIFVLSGLVSAIAGIILASRMTSGQPMTSIGYELIVISACVLGGVSLKGGIGKISYVVAGILILGTVENAMNLLNISPFAQYVVRGLILLAAVIFDRYKQKAKRTV [P0AE26],2.54 ± 0.33 h,4.04 ± 0.19 h,7.44 ± 0.65 h,,,,,,,,,
MSSYANHQALAGLTLGKSTDYRDTYDASLLQGVPRSLNRDPLGLKADNLPFHGTDIWTLYELSWLNAKGLPQVAVGHVELDYTSVNLIESKSFKLYLNSFNQTRFNNWDEVRQTLERDLSTCAQGKISVALYRLDELEGQPIGHFNGTCIDDQDITIDNYEFTTDYLENATCGEKVVEETLVSHLLKSNCLITHQPDWGSLQIQYRGRQIDREKLLRYLVSFRHHNEFHEQCVERIFNDLLRFCQPEKLSVYARYTRRGGLDINPWRSNSDFVPSTTRLVRQ,2.81 ± 0.26 h,5.542 ± 0.011 h,8.79 ± 1.1 h,5.36 ± 0.64 h,5.85 ± 1.8 h,5 ± 0.28 h,4.54 ± 0.56 h,4.09 ± 0.3 h,4.41 ± 0.24 h,7.06 ± 0.16 h,5.622 ± 0.049 h,10.92 ± 0.053 h
MSTEIKTQVVVLGAGPAGYSAAFRCADLGLETVIVERYNTLGGVCLNVGCIPSKALLHVAKVIEEAKALAEHGIVFGEPKTDIDKIRTWKEKVINQLTGGLAGMAKGRKVKVVNGLGKFTGANTLEVEGENGKTVINFDNAIIAAGSRPIQLPFIPHEDPRIWDSTDALELKEVPERLLVMGGGIIGLEMGTVYHALGSQIDVVEMFDQVIPAADKDIVKVFTKRISKKFNLMLETKVTAVEAKEDGIYVTMEGKKAPAEPQRYDAVLVAIGRVPNGKNLDAGKAGVEVDDRGFIRVDKQLRTNVPHIFAIGDIVGQPMLAHKGVHEGHVAAEVIAGKKHYFDPKVIPSIAYTEPEVAWVGLTEKEAKEKGISYETATFPWAASGRAIASDCADGMTKLIFDKESHRVIGGAIVGTNGGELLGEIGLAIEMGCDAEDIALTIHAHPTLHESVGLAAEVFEGSITDLPNPKAKKK [P0A9P0],3.11 ± 0.081 h,6.68 ± 0.33 h,12.6 ± 1.1 h,6.89 ± 0.093 h,6.28 ± 0.24 h,6.35 ± 0.43 h,6.43 ± 0.36 h,6.01 ± 0.24 h,6.23 ± 0.55 h,13.1 ± 0.57 h,6.11 ± 0.12 h,14.4 ± 0.26 h
MSTEKEKMIAGELYRSADETLSRDRLRARQLIHRYNHSLAEEHTLRQQILADLFGQVTEAYIEPTFRCDYGYNIFLGNNFFANFDCVMLDVCPIRIGDNCMLAPGVHIYTATHPIDPVARNSGAELGKPVTIGNNVWIGGRAVINPGVTIGDNVVVASGAVVTKDVPDNVVVGGNPARIIKKL,3.24 ± 0.56 h,3.82 ± 0.11 h,5.15 ± 2.1 h,3.81 h,> 8 h,1.77 h,,,,,> 8 h,7.59 ± 1.4 h
MSTKPLFLLRKAKKSSGEPDVVLWASNDFESTCATLDYLIVKSGKKLSSYFKAVATNFPVVNDLPAEGEIDFTWSERYQLSKDSMTWELKPGAAPDNAHYQGNTNVNGEDMTEIEENMLLPISGQELPIRWLAQHGSEKPVTHVSRDGLQALHIARAEELPAVTALAVSHKTSLLDPLEIRELHKLVRDTDKVFPNPGNSNLGLITAFFEAYLNADYTDRGLLTKEWMKGNRVSHITRTASGANAGGGNLTDRGEGFVHDLTSLARDVATGVLARSMDLDIYNLHPAHAKRIEEIIAENKPPFSVFRDKFITMPGGLDYSRAIVVASVKEAPIGIEVIPAHVTEYLNKVLTETDHANPDPEIVDIACGRSSAPMPQRVTEEGKQDDEEKPQPSGTTAVEQGEAETMEPDATEHHQDTQPLDAQSQVNSVDAKYQELRAELHEARKNIPSKNPVDDDKLLAASRGEFVDGISDPNDPKWVKGIQTRDCVYQNQPETEKTSPDMNQPEPVVQQEPEIACNACGQTGGDNCPDCGAVMGDATYQETFDEESQVEAKENDPEEMEGAEHPHNENAGSDPHRDCSDETGEVADPVIVEDIEPGIYYGISNENYHAGPGISKSQLDDIADTPALYLWRKNAPVDTTKTKTLDLGTAFHCRVLEPEEFSNRFIVAPEFNRRTNAGKEEEKAFLMECASTGKTVITAEEGRKIELMYQSVMALPLGQWLVESAGHAESSIYWEDPETGILCRCRPDKIIPEFHWIMDVKTTADIQRFKTAYYDYRYHVQDAFYSDGYEAQFGVQPTFVFLVASTTIECGRYPVEIFMMGEEAKLAGQQEYHRNLRTLSDCLNTDEWPAIKTLSLPRWAKEYAND,3.65 ± 0.15 h,4.2 ± 0.11 h,5.8 ± 1.9 h,6.07 ± 0.4 h,3.46 h,,,,,> 16 h,2.43 h,4.82 h
MSTLEPAAQSKPPGGFKLWLSQLQMKHGRKLVIALPYIWLILLFLLPFLIVFKISLAEMARAIPPYTELMEWADGQLSITLNLGNFLQLTDDPLYFDAYLQSLQVAAISTFCCLLIGYPLAWAVAHSKPSTRNILLLLVILPSWTSFLIRVYAWMGILKNNGVLNNFLLWLGVIDQPLTILHTNLAVYIGIVYAYVPFMVLPIYTALIRIDYSLVEAALDLGARPLKTFFTVIVPLTKGGIIAGSMLVFIPAVGEFVIPELLGGPDSIMIGRVLWQEFFNNRDWPVASAVAIIMLLLLIVPIMWFHKHQQKSVGEHG,,5.16 ± 0.14 h,12 ± 1.7 h,6.86 h,4.75 ± 1.4 h,,,5 h,5.38 h,10.6 ± 0.24 h,6.7 h,13.2 ± 1.9 h
MSTLGHQYDNSLVSNAFGFLRLPMNFQPYDSDADWVITGVPFDMATSGRAGGRHGPAAIRQVSTNLAWEHNRFPWNFDMRERLNVVDCGDLVYAFGDAREMSEKLQAHAEKLLAAGKRMLSFGGDHFVTLPLLRAHAKHFGKMALVHFDAHTDTYANGCEFDHGTMFYTAPKEGLIDPNHSVQIGIRTEFDKDNGFTVLDACQVNDRSVDDVIAQVKQIVGDMPVYLTFDIDCLDPAFAPGTGTPVIGGLTSDRAIKLVRGLKDLNIVGMDVVEVAPAYDQSEITALAAATLALEMLYIQAAKKGE,2.9 ± 0.36 h,6.205 ± 0.019 h,11.8 ± 0.43 h,6.58 ± 1 h,5.85 ± 0.27 h,5.33 ± 0.076 h,7.38 ± 0.48 h,5.82 ± 0.58 h,6.72 ± 0.96 h,11.9 h,6.0955 ± 0.0043 h,12.2 ± 1.3 h
